Source: PMC9881131, “ZNF212 promotes genomic integrity through direct interaction with TRAIP” (Nucleic Acids Research, 2023)

Molecular target: T1, recombinant HA-NEIL3 (human, UniProt Q8TAT5 1-605)
T1 construct: NEIL3, human (hNEIL3), subcloned into a pET19b-derived plasmid; The methods tell 3x FLAG (N-terminus) and 10x His (C-terminus); the results call the purified protein HA-NEIL3; Which tags stood on the protein in the assay is not clear; also called hNEIL3; source: E. coli BL21 (DE3), purified (Ni-NTA, Q column, gel filtration)
T1 sequence (looked up): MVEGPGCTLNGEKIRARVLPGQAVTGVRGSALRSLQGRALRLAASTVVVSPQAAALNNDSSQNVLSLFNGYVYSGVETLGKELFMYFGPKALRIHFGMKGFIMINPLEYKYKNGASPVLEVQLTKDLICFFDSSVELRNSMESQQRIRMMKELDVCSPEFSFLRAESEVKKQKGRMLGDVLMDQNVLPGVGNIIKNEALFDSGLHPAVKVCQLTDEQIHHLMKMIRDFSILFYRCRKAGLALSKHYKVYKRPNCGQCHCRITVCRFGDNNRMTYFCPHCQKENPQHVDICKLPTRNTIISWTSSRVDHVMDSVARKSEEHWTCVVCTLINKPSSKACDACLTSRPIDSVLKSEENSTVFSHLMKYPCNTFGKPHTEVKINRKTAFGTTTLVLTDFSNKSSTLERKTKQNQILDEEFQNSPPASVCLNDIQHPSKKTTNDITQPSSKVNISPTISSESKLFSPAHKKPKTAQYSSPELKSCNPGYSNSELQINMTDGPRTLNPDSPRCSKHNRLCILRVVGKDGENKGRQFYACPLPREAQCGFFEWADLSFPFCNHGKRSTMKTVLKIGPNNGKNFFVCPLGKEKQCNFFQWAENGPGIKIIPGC
Assay: co-IP; purified recombinant Flag-ZNF212 (or ZNF212-C) and HA-NEIL3; immunoprecipitation with increasing amounts of HA-NEIL3
Conditions: both partners purified

binding result: binds
B1: recombinant Flag-ZNF212 (natural protein)
chain: not shown
notes: ZNF212, human, 3X-Flag tagged coding region cloned in pCold TF DNA; The host strain (E. coli BL21 (DE3)) is stated for hNEIL3 only; the later purification steps are told for hNEIL3 only; also called hZNF212; source: pCold TF DNA vector, cells grown in LB broth at 15°C, purified (Ni-NTA)
